# Source: US20220233706A1 (ANTIKOR BIOPHARMA, published 2022)
# “And” between values parts separate entries of the source, which are not always exact repeats. Equal entries are not always repeated. Where two headings read alike, the source gives them in different places.
# B1: scFv (TCT1067)-Acetate DAR 16 (scFv)
# scFv: SGSGGSGQVQLVQSGAEVKKPGESLKISCKGSGYSFTSYWIAWVRQMPGKGLEYMGLIYPGDSDTKYSPSFQGQVTISVDKSVSTAYLQWSSLKPSDSAVYFCARHDVGYCTDRTCAAWPEWLGVWGQGTLVTVSSGGGGSGGGGSGGGGSQSVLTQPPSVSAAPGQKVTISCSGSSSNIGNNYVSWYQQLPGTAPKLLIYGHTNRPAGVPDRFSGSKSGTSASLAISGFRSEDEADYYCASWDYTLSGWVFGGGTKLTVLMASMTGGQQMG
# modifications: acetyl groups (from Acetate-NHS) on lysines, N-terminal amine and further residues, 16 additions by LC-MS
# notes: also called TCT1067-acetate conjugate 2
# B2: scFv (TCT1067)-MMAF-C5 ADC 1 (DAR 5.2) (scFv)
# scFv: B1 scFv
# modifications: MMAF-C5 on lysine residues; DAR 6.4 by AAA, 4.0 by MS, average 5.2
# notes: also called scFv (TCT1067)-MMAF-C5 DAR 5.2; scFv (TCT1067)-MMAF-C5, DAR 6.4
# B3: scFv (TCT1067)-P5-C5 DAR 10.9 (scFv)
# scFv: B1 scFv
# modifications: P5-C5 on lysine residues; DAR 10.4 by AAA, 11.7 by MS, overall average 10.9
# notes: also called TCT1067-P5C5 ADC 1; compound 71
# B4: scFv (TCT1067) (scFv)
# scFv: B1 scFv
# notes: also called unmodified scFv (TCT1067)
# B5: scFv (TCT1067)-Auristatin-F-C5 DAR 5.65 (scFv)
# scFv: B1 scFv
# modifications: Auristatin F-C5 on lysine residues; DAR 6.31 by AAA, 4.98 by MS, average 5.65
# notes: also called TCT1067-AF-C5 ADC2
# B6: scFv (TCT1067)-Auristatin-F-C5 DAR 11.9 (scFv)
# scFv: B1 scFv
# modifications: Auristatin F-C5 on lysine residues; DAR 13.4 by AAA, 10.4 by MS, average 11.9
# notes: also called TCT1067-AF-C5 ADC 3
# B7: scFv (TCT1067)-DM1-dPEG12 DAR 8 (scFv)
# scFv: B1 scFv
# modifications: Maytansine DM1-dPEG12 (from compound 90) on lysine residues, DAR 8 by LC-MS
# notes: also called TCT1067-Maytansine-PEG(12) DM1 ADC 2; scFv (TCT1067)-DM1 DAR 8
# B8: scFv (TCT1067)-MMAF-C5 ADC 2 (DAR 7.1) (scFv)
# scFv: B1 scFv
# modifications: MMAF-C5 on lysine residues; DAR 8.6 by AAA, 5.5 by MS, average 7.1
# notes: also called scFv (TCT1067)-MMAF DAR 8.7
# B9: scFv (TCT1067)-DM1-dPEG12 DAR 7 (scFv)
# scFv: B1 scFv
# modifications: Maytansine DM1-dPEG12 on lysine residues, 6-8 additions, average DAR 7 by LC-MS
# notes: also called TCT1067-Maytansine-PEG(12) DM1 ADC 1; compound 124
# B10: scFv (TCT1067)-MMAE-PAB-Cit-Val-dPEG9 conjugate, DAR 8.6 (scFv)
# scFv: B1 scFv
# modifications: MMAE-PAB-Cit-Val-dPEG9 (from compound 86) on lysine residues; DAR 9.6 by AAA, 7.5 by LC-MS, average 8.6
# notes: also called TCT1067-MMAE ADC1
# B11: scFv (TCT1067)-Auristatin-F-C5 DAR 3.3 (scFv)
# scFv: B1 scFv
# modifications: Auristatin F-C5 on lysine residues; DAR 3.64 by AAA, 2.9 by MS, average 3.3
# notes: also called TCT1067-AF-C5 ADC 1
# B12: scFv (TCT) (scFv)
# scFv: SGSGGSGQVQLVQSGAEVKKPGESLKISCKGSGYSFTSYWIAWVRQMPGKGLEYMGLIYPGDSDTKYSPSFQGQVTISVDKSVSTAYLQWSSLKPSDSAVYFCARHDVGYCSSSNCAAWPEYFQHWGQGTLVTVSSGGGGSGGGGSGGGGSQSVLTQPPSVSAAPGQKVTISCSGSSSNIGNNYVSWYQQLPGTAPKLLIYGHTNRPAGVPDRFSGSKSGTSASLAISGFRSEDEADYYCAAWDDSLSGWVFGGGTKLTVLMASMTGGQQMG
# notes: Anti-HER2 C6.5 scFv with residual Ser, GSGGSG linker and C-terminal T7 tag; also called cleaved TCT; unmodified scFv (TCT)
# B13: scFv (TCT)-Acetate DAR 15 (scFv)
# scFv: B12 scFv
# modifications: acetyl groups (from Acetate-NHS) on lysines, N-terminal amine and further residues, 15 additions by LC-MS
# notes: also called TCT-acetate conjugate 1
# B14: scFv (TCT)-MMAF-C5 ADC 2 (DAR 6.8) (scFv)
# scFv: B12 scFv
# modifications: MMAF-C5 on lysine residues; DAR 8.0 by AAA, 5.5 by MS, average 6.8
# notes: also called scFv (TCT)-MMAF-C5 DAR 6.8; scFv (TCT)-MMAF DAR 8
# B15: scFv (TCT)-MMAF-C5 ADC 1 (DAR 5.6) (scFv)
# scFv: B12 scFv
# modifications: MMAF-C5 (from MMAF-C5-NHS, compound 78) on lysine residues; DAR 6.64 by AAA, 4.5 by MS, average 5.6
# notes: also called scFv (TCT)-MMAF-C5 1 DAR 5.6; scFv (TCT)-MMAF-C5, DAR 6.6
# B16: scFv (TCT)-Cemadotin ADC sample 3 (DAR 11) (scFv)
# scFv: B12 scFv
# modifications: Cemadotin on all but one of the surface lysine residues (11/12), DAR 10.96 by AAA
# notes: also called TCT-Cem ADC3; TCT-Cemadotin conjugate 3
# B17: scFv (TCT)-Cemadotin ADC sample 2 (DAR 8.2) (scFv)
# scFv: B12 scFv
# modifications: Cemadotin on lysine residues, average DAR 8.2 by AAA
# notes: also called TCT-Cem ADC2; TCT-Cemadotin conjugate 2
# B18: scFv (TCT)-Cemadotin ADC sample 1 (DAR 3.9) (scFv)
# scFv: B12 scFv
# modifications: Cemadotin (from Cemadotin-NHS, compound 2) on lysine residues, average DAR 3.9 by AAA
# notes: also called TCT-Cem ADC1; TCT-Cemadotin conjugate 1
# B19: scFv TCT-P5C5(1) (DAR 8) (scFv)
# scFv: B12 scFv
# modifications: P5C5 (from P5C5-NHS, compound 6) on lysine residues, DAR 8.17 by AAA
# notes: also called scFv (TCT)-P5C5, DAR = 8; compound 71
# Tests used:
# HER2-Fc [1] = target: T1, HER2-Fc (UniProt P04626 23-652); experiment: ELISA, plates coated with 10 µg/ml HER2-Fc, anti-myc IgG detection
# T1 construct: Coated at 10 µg/ml on ELISA plates; also called HER2 antigen; immobilised HER2 target antigen (ELISA); not shown: Fc part
# [2] = target: T2, HER2 immobilised on a Biacore chip (UniProt P04626 23-652, limits assumed); experiment: Biacore SPR, HER2 amine-coupled to the chip; Acetate conjugate, DAR 16
# T2 construct: also called immobilised HER2 target antigen (Biacore SPR); HER2 chip
# Description: (§1) A standard amine-coupling method was used to prepare all Biacore surfaces (CM5 or CM3), as follows. Flow cells were activated individually by injecting a freshly mixed solution of 0.2M EDC in 0.05 M NHS at 30 μl/min. […] Excess NHS ester was deactivated using a 1 M ethanolamine solution. […] The dissociation time was extended to 3600 s for the highest concentration. Surfaces were regenerated with 45 s injection of MgCl₂ […].
# [3] = target: T2, HER2 immobilised on a Biacore chip; experiment: Biacore SPR, HER2 amine-coupled to the chip
# [4] = target: T2, HER2 immobilised on a Biacore chip; experiment: Biacore SPR, HER2 amine-coupled to the chip; MMAF-C5 conjugate, DAR 5.2
# Description: as §1
# [5] = target: T2, HER2 immobilised on a Biacore chip; experiment: Biacore SPR, HER2 amine-coupled to the chip; unmodified scFv (TCT1067)
# Description: as §1
# [6] = target: T2, HER2 immobilised on a Biacore chip; experiment: Biacore SPR, HER2 amine-coupled to the chip; Auristatin-F-C5 conjugate, DAR 5.65
# Description: as §1
# [7] = target: T2, HER2 immobilised on a Biacore chip; experiment: Biacore SPR, HER2 amine-coupled to the chip; Auristatin-F-C5 conjugate, DAR 11.9
# Description: as §1
# [8] = target: T2, HER2 immobilised on a Biacore chip; experiment: Biacore SPR, HER2 amine-coupled to the chip; DM1-dPEG12 conjugate, DAR 8
# Description: as §1
# [9] = target: T2, HER2 immobilised on a Biacore chip; experiment: Biacore SPR, HER2 amine-coupled to the chip; MMAF-C5 conjugate, DAR 7.1
# Description: as §1
# [10] = target: T2, HER2 immobilised on a Biacore chip; experiment: Biacore SPR, HER2 amine-coupled to the chip; DM1-dPEG12 conjugate, DAR 7
# Description: as §1
# [11] = target: T2, HER2 immobilised on a Biacore chip; experiment: Biacore SPR, HER2 amine-coupled to the chip; MMAE-PAB-Cit-Val-dPEG9 conjugate, DAR 8.6
# Description: as §1
# [12] = target: T2, HER2 immobilised on a Biacore chip; experiment: Biacore SPR, HER2 amine-coupled to the chip; Auristatin-F-C5 conjugate, DAR 3.3
# Description: as §1
# HER2-Fc [13] = target: T1, HER2-Fc; experiment: ELISA on plates coated with 10 µg/ml HER2-Fc, detection anti-T7 peroxidase conjugate, absorption at 450 nm
# Description: (§2) All proteins were detected using the C-terminal T7 Tag which was not expected to be chemically modified (no lysines present). 96-well Immunosorb ELISA plates were coated with 10 μg/ml HER2-Fc in PBS, followed by the test samples, anti-T7 peroxidase conjugate. Extensive PBS washes were in between each layer and detection was with BM-Blue substrate.
# HER2-Fc [14] = target: T1, HER2-Fc; experiment: ELISA, plates coated with 10 µg/ml HER2-Fc, anti-T7 peroxidase detection; unmodified scFv (TCT), ELISA
# Description: (§3) The DAR was determined by AAA as before (Table 11A & B), this time following the release of the di-proline fragment to identify and quantify the P5-based drug. […] All proteins were detected using the C-terminal T7 Tag which was not expected to be chemically modified (no lysines present). 96-well Immunosorb ELISA plates were coated with 10 μg/ml HER2-Fc in PBS, followed by the test samples, anti-T7-peroxidase conjugate. Extensive PBS/tween-20 and PBS washes were in between each layer and detection was with BM-Blue substrate. […] The DARs were verified by AAA (Tables 11A and 11B).
# HER2-Fc [15] = target: T1, HER2-Fc; experiment: ELISA on plates coated with 10 µg/ml HER2-Fc, detection anti-T7 peroxidase conjugate, absorption at 450 nm; remark: listed apart in the source
# Description: as §3
# HER2-Fc [16] = target: T1, HER2-Fc; experiment: ELISA, plates coated with 10 µg/ml HER2-Fc, anti-T7 peroxidase detection
# Description: as §2
# HER2-Fc [17] = target: T1, HER2-Fc; experiment: ELISA, plates coated with 10 µg/ml HER2-Fc, anti-T7 peroxidase detection; scFv TCT-P5C5(1), 8 drugs loaded, ELISA
# Description: as §3
molecule,measurement,setting,value
"C6.5 scFv, non-SPDP modified but reduced control",Kd,HER2-Fc [1],42 nM
"C6.5 scFv-SPDP conjugate, linker to antibody ratio 5.4, reduced with TCEP",Kd,HER2-Fc [1],24.9 nM
B1,Kd,[2],0.021 nM
same,koff,[3],7.64e-05 s⁻¹
same,kon,[3],3.63e+06 M⁻¹ s⁻¹
B2,Kd,[4],0.0196 nM
same,koff,[4],3.4e-05 s⁻¹
same,kon,[4],1.8e+06 M⁻¹ s⁻¹
B3,Kd,[3],0.302 nM
same,koff,[3],7.13e-05 s⁻¹
same,kon,[3],236000 M⁻¹ s⁻¹
B4,Kd,[5],0.0095 nM
same,koff,[3],3.7e-05 s⁻¹ and 3.69e-05 s⁻¹
same,kon,[3],3.9e+06 M⁻¹ s⁻¹ and 3.88e+06 M⁻¹ s⁻¹
B5,Kd,[6],0.0403 nM
same,koff,[3],1.35e-05 s⁻¹
same,kon,[3],336000 M⁻¹ s⁻¹
B6,Kd,[7],0.81 nM
same,koff,[3],1.76e-05 s⁻¹
same,kon,[3],21700 M⁻¹ s⁻¹
B7,Kd,[8],2.48 nM
same,koff,[3],3.28e-05 s⁻¹
same,kon,[3],13200 M⁻¹ s⁻¹
B8,Kd,[9],0.0038 nM
same,koff,[9],1.7e-05 s⁻¹
same,kon,[9],4.6e+06 M⁻¹ s⁻¹
B9,Kd,[10],1.39 nM
same,koff,[3],2.7e-05 s⁻¹
same,kon,[3],19500 M⁻¹ s⁻¹
B10,Kd,[11],1 nM
same,koff,[3],2.23e-05 s⁻¹
same,kon,[3],22100 M⁻¹ s⁻¹
B11,Kd,[12],0.0328 nM
same,koff,[3],1.82e-05 s⁻¹
same,kon,[3],556000 M⁻¹ s⁻¹
B12,EC50 (read off the curve),HER2-Fc [13],2 to 3 nM
same,Kd,HER2-Fc [14],7 nM
same,EC50 (read off the curve),HER2-Fc [15],~7 nM
same,Kd,HER2-Fc [15],6.97 nM
same,Kd,HER2-Fc [16],2.5 nM
same,Kd,[3],1.49 nM
same,koff,[3],0.00417 s⁻¹
same,kon,[3],2.8e+06 M⁻¹ s⁻¹
B13,Kd,[3],2.9 nM
same,koff,[3],0.0171 s⁻¹
same,kon,[3],5.93e+06 M⁻¹ s⁻¹
B14,Kd,[3],3.6 nM
same,koff,[3],0.0042 s⁻¹
same,kon,[3],1.2e+06 M⁻¹ s⁻¹
B15,Kd,[3],5.4 nM
same,koff,[3],0.0042 s⁻¹
same,kon,[3],770000 M⁻¹ s⁻¹
B16,EC50 (read off the curve),HER2-Fc [13],~40 nM
same,Kd,HER2-Fc [16],27.5 nM
B17,EC50 (read off the curve),HER2-Fc [13],~20 nM
same,Kd,HER2-Fc [16],15.5 nM
B18,EC50 (read off the curve),HER2-Fc [13],~4 nM
same,Kd,HER2-Fc [16],3.3 nM
B19,Kd,HER2-Fc [17],13 nM
same,EC50 (read off the curve),HER2-Fc [15],10 to 20 nM
same,Kd,HER2-Fc [15],13 nM
